Reference: PMC13215203

Molecular target: reconstituted C. elegans γ-tubulin complex (γTuC): γ-tubulin^TBG-1, GCP2^GIP-2-5Myc, GCP3^GIP-1 and MZT-1, P34475;G5EF84
Sequence (chain, as listed by the source, chain 1 of 4): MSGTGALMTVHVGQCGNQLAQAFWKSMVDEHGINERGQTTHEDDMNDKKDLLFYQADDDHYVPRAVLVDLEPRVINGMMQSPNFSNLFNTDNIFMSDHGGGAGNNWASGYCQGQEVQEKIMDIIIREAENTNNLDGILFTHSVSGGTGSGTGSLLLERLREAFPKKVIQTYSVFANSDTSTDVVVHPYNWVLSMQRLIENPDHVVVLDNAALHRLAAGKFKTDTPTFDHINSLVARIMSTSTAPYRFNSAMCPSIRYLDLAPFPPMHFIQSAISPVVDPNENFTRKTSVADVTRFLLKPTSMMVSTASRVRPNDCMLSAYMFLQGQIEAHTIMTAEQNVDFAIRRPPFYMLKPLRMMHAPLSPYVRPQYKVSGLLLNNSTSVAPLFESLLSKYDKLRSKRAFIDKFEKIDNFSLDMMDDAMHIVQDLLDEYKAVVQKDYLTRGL
Sequence (chain, as listed by the source, chain 2 of 4): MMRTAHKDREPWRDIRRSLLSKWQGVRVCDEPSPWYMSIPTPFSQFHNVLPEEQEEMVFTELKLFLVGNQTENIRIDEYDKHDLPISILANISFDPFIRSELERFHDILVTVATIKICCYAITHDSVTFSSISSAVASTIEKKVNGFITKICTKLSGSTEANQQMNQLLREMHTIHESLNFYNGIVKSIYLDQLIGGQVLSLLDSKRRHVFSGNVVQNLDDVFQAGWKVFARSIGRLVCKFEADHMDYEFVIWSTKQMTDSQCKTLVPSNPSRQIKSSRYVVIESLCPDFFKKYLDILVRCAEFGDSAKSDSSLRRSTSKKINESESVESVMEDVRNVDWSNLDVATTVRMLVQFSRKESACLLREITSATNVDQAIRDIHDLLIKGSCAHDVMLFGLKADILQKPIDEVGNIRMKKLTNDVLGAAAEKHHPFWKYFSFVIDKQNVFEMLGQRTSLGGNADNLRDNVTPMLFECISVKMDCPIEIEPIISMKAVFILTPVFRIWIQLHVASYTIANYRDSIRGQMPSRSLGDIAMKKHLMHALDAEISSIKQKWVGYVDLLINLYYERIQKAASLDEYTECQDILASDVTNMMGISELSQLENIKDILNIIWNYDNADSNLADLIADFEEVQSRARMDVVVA
Sequence (chain, as listed by the source, chain 3 of 4): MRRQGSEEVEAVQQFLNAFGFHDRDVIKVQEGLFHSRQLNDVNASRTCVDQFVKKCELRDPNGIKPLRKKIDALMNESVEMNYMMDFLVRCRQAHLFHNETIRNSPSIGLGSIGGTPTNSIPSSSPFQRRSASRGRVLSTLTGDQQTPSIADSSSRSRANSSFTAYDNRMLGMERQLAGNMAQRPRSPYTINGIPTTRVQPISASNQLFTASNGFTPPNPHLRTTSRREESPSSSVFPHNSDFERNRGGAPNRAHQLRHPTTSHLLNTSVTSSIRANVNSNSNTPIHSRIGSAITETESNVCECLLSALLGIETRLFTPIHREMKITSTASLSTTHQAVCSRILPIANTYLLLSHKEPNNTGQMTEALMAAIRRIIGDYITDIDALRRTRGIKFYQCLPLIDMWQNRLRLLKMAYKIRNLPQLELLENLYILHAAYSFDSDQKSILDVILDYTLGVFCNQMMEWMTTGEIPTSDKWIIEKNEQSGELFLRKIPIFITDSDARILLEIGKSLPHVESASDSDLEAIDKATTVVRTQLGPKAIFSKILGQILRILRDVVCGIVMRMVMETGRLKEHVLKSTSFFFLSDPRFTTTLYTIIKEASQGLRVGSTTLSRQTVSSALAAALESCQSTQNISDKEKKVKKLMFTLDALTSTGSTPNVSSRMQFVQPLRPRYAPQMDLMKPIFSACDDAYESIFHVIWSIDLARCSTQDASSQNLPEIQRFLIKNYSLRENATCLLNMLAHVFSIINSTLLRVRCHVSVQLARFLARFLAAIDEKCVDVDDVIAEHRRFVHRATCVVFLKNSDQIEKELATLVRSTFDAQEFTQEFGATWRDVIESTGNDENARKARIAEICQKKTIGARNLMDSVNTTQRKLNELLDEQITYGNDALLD
Sequence (chain, as listed by the source, chain 4 of 4): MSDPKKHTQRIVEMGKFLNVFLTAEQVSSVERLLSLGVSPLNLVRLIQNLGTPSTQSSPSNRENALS
Assay: γTuC pull-down (γTuC-coated Myc beads), anti-SPD-5 immunoblot band intensity
Conditions: chain shown with the change, binding 2 hours at 4°C, SPD-5 fragment 75 nM, scale: band intensity relative to SPD-5 135-473 without PLK1
[1] = +PLK1 preincubation (500 nM PLK1(T194D), 2.0 μM fragment, 1 hour at 23°C)

Binder | response [1] | response (no PLK1)
untagged SPD-5 amino acids 135-473, not phosphorylated, P91349 S170A; T178A; T198A (protein) MQSRIETSEDNFARQMKEFEAQKHAMEERIKELELAATDANNTAVGSFRGTLDDILKKNDPDFALTSGYEERKINDLEAKLLSEIDKVAELEDHIQQLRQELDDQSARLADSENVRAQLEAATGQGILGAAGNAMVPNSTFMIGNGRESQTRDQLNYIDDLETKLADAKKENDKARQALVEYMNKCSKLEHEIRTMVKNSTFDSSSMLLGGQTSDELKIQIGKVNGELNVLRAENRELRIRCDQLTGGDGNLSISLGQSRLMAGIATNDVDSIGQGNETGGTSMRILPRESQLDDLEESKLPLMDTSSAVRNQQQFASMWEDFESVKDSLQNNHNDTLE | – | 0.7
untagged SPD-5 amino acids 135-473, not phosphorylated, P91349 T274A; T335A; S339A; S340A (protein) MQSRIETSEDNFARQMKEFEAQKHAMEERIKELELSATDANNTTVGSFRGTLDDILKKNDPDFTLTSGYEERKINDLEAKLLSEIDKVAELEDHIQQLRQELDDQSARLADSENVRAQLEAATGQGILGAAGNAMVPNSAFMIGNGRESQTRDQLNYIDDLETKLADAKKENDKARQALVEYMNKCSKLEHEIRTMVKNSAFDSAAMLLGGQTSDELKIQIGKVNGELNVLRAENRELRIRCDQLTGGDGNLSISLGQSRLMAGIATNDVDSIGQGNETGGTSMRILPRESQLDDLEESKLPLMDTSSAVRNQQQFASMWEDFESVKDSLQNNHNDTLE | – | 0.1
untagged SPD-5 amino acids 135-473, not phosphorylated, P91349 S170A; T178A; T198A; T274A; T335A; S339A; S340A (protein) MQSRIETSEDNFARQMKEFEAQKHAMEERIKELELAATDANNTAVGSFRGTLDDILKKNDPDFALTSGYEERKINDLEAKLLSEIDKVAELEDHIQQLRQELDDQSARLADSENVRAQLEAATGQGILGAAGNAMVPNSAFMIGNGRESQTRDQLNYIDDLETKLADAKKENDKARQALVEYMNKCSKLEHEIRTMVKNSAFDSAAMLLGGQTSDELKIQIGKVNGELNVLRAENRELRIRCDQLTGGDGNLSISLGQSRLMAGIATNDVDSIGQGNETGGTSMRILPRESQLDDLEESKLPLMDTSSAVRNQQQFASMWEDFESVKDSLQNNHNDTLE | – | 0.1

More lines, now with the values ahead:

response [1] | response (no PLK1) | Binder
0.1 | – | untagged SPD-5 amino acids 135-473, phosphorylated by PLK1, P91349 S170A; T178A; T198A (protein) MQSRIETSEDNFARQMKEFEAQKHAMEERIKELELAATDANNTAVGSFRGTLDDILKKNDPDFALTSGYEERKINDLEAKLLSEIDKVAELEDHIQQLRQELDDQSARLADSENVRAQLEAATGQGILGAAGNAMVPNSTFMIGNGRESQTRDQLNYIDDLETKLADAKKENDKARQALVEYMNKCSKLEHEIRTMVKNSTFDSSSMLLGGQTSDELKIQIGKVNGELNVLRAENRELRIRCDQLTGGDGNLSISLGQSRLMAGIATNDVDSIGQGNETGGTSMRILPRESQLDDLEESKLPLMDTSSAVRNQQQFASMWEDFESVKDSLQNNHNDTLE
2.8 | – | untagged SPD-5 amino acids 135-473, phosphorylated by PLK1, P91349 T274A; T335A; S339A; S340A (protein) MQSRIETSEDNFARQMKEFEAQKHAMEERIKELELSATDANNTTVGSFRGTLDDILKKNDPDFTLTSGYEERKINDLEAKLLSEIDKVAELEDHIQQLRQELDDQSARLADSENVRAQLEAATGQGILGAAGNAMVPNSAFMIGNGRESQTRDQLNYIDDLETKLADAKKENDKARQALVEYMNKCSKLEHEIRTMVKNSAFDSAAMLLGGQTSDELKIQIGKVNGELNVLRAENRELRIRCDQLTGGDGNLSISLGQSRLMAGIATNDVDSIGQGNETGGTSMRILPRESQLDDLEESKLPLMDTSSAVRNQQQFASMWEDFESVKDSLQNNHNDTLE
0 | – | untagged SPD-5 amino acids 135-473, phosphorylated by PLK1, P91349 S170A; T178A; T198A; T274A; T335A; S339A; S340A (protein) MQSRIETSEDNFARQMKEFEAQKHAMEERIKELELAATDANNTAVGSFRGTLDDILKKNDPDFALTSGYEERKINDLEAKLLSEIDKVAELEDHIQQLRQELDDQSARLADSENVRAQLEAATGQGILGAAGNAMVPNSAFMIGNGRESQTRDQLNYIDDLETKLADAKKENDKARQALVEYMNKCSKLEHEIRTMVKNSAFDSAAMLLGGQTSDELKIQIGKVNGELNVLRAENRELRIRCDQLTGGDGNLSISLGQSRLMAGIATNDVDSIGQGNETGGTSMRILPRESQLDDLEESKLPLMDTSSAVRNQQQFASMWEDFESVKDSLQNNHNDTLE
